Data: the nanobody polyreactivity screen of Harvey et al. (2022)

test: yeast display, Sf9 membrane polyspecificity reagent, FACS + sequencing; frameworks hold sequencing errors
Procedure, shortened: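 In a synthetic yeast display library (Saccharomyces cerevisiae BJ5465), nanobody expression was induced with galactose for 36–48 hours. FACS gates were set low and high (top ~1%) using anti-HA fluorescence for expression and streptavidin fluorescence for binding of the Sf9 membrane reagent. Each polyreactivity label is drawn from the gate of origin.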

| Sequence | polyreactivity (PSR sort gate) |
| --- | --- |
| QVQLVESGGGLVQAGGSLRLSCAASGFTFHNNVMGWYRQAPGKERELVATISKSGGSTYYADSVKGRFTISRDNAKNTVYLQMNSLKPEDTAVYYCAALYPYQYVRGGYWGQGTQVTVSS | high polyreactivity |
| QVQLVESGGGLVQAGGSLRLSCAASGFTFHSYAMGWYRQAPGKDRELVAAISRGGGNTYYADSVKGRFTISRDNAKNTVYLQMNSLKPEDTAVYYCAADAIYNFEMDYWGQGTQVTVSS | high polyreactivity |
| QVQLVESGGGLVQAGGSLRLSCAASGFTFHSYAMGWYRQAPGKERELVAAISRGGGSTYYADSVKGRFTISRDNAKYTVYLQMNSLKPEDTAVYYCAARGQGGYRVGYYYWGQGTQVTVSS | high polyreactivity |
| QVQLVESGGGLVQAGGSLRLSCAASGFTFHSYAMGWYRQAPGKERELVAAISTGGTRTYYADSVMGRVTISRDNAKNTVYLQMNSLKPEDTAVYYCAADLYRGVRIYSKYDSWGQGTQVTVSS | high polyreactivity |
| QVQLVESGGGLVQAGGSLRLSCAASGFTFHWYAMGWYRQAPGKERELVAAISSGSSTYYADSVKGRFTISRDNAKNTVYLQMKSLKPEDTAVYYCNVVLYKYSPTESWITYDYWGQGTQVTVSS | low polyreactivity |
| QVQLVESGGGLVQAGGSLRLSCAASGFTFHYYDMGWYRQAPGKERELVASISWSGGDTYYADSVKGRFTISRDNAKNTVYLQMNSLKPEDTAVYYCAADPTQEVQYLTPYTYDYWGQGTQVTVSS | low polyreactivity |
| QVQLVESGGGLVQAGGSLRLSCAASGFTFIGNAMGWYRQAPGKERELVAAISWRGGSTYYADSVKGRFTISRDNAKNTVYLQMNSLKPEDTAVYYCNKVPRRVSRSERDYWGQGTQVTVSS | high polyreactivity |
| QVQLVESGGGLVQAGGSLRLSCAASGFTFIHYGMGWYRQAPGKERELVAAITWRGDRTYADSVKGRFTISRDNAKNTVYLQMNSLKPEDTAVYYCAVGFYYFSSWYSYDYWGQGTQVTVSS | high polyreactivity |
| QVQLVESGGGLVQAGGSLRLSCAASGFTFIPNAMGWYRQAPGKERELVAAISTGGSTYYADSVKGRFTISRDNAKNTVYLQMNSLKPEDTAVYYCAAGILVLKLYFSSYDYWGQGTEVTVSS | low polyreactivity |
| QVQLVESGGGLVQAGGSLRLSCAASGFTFIRNAMGWYRQAPGKDRELVAAISRSGGSTYYADSVKGRFTISRDNAKYTVYLQMNSLKPEDTAVYYCPVTLYLKWQGGAYDYWGQGTQVTVSS | low polyreactivity |
| QVQLVESGGGLVQAGGSLRLSCAASGFTFIRNGMGWYRQAPGKERELVAAITTSGSGTYYADSVKGRFTISRDNAKNTVYLQMNSLKPEDTAVYYCATDYRYRSYSRGAHDYWGQGTQVTVSS | low polyreactivity |
| QVQLVESGGGLVQAGGSLRLSCAASGFTFISKAMGWYRQAPGKERELVAAISSSGGRTYYADSVKGRFTISRDHAKYTVYLQMNSLKPEDTALYYCNADRSLLYSRKIEYDYWGQGTQVTVSS | low polyreactivity |
| QVQLVESGGGLVQAGGSLRLSCAASGFTFISYAMGWYSQAPGQERELVAAISSTGGSTYYADSVKGRFTSSRDTAKKTVYLQMNSLKPEETAVYYCNAVYWYTSEYDYWGQGTQVTVSS | high polyreactivity |
| QVQLVESGGGLVQAGGSLRLSCAASGFTFITNAMGWYRQAPGNERELVASISIGGSTNYADSVKGRFTISRDNAKNTVYLQMTSLKPEDTAVYYCAARVYRRLFLPGRYGRPLGYWGQGTQVTVSS | high polyreactivity |
| QVQLVESGGGLVQAGGSLRLSCAASGFTFITYAMGGHRQAPGKERELVAAIRTGGGTNYADSVKGRFTISRDNAKNTVYLQMNSLKPEDTAVYYCAKGRQGVSYLTGTYGCRYYWGQGTQVTVSS | low polyreactivity |
| QVQLVESGGGLVQAGGSLRLSCAASGFTFKENTIGRYRQAPGKEMELVAAMSWSGGGTYYADSVKGRFTISRDNGKNTVYLQMNSLKPEDTAVYYCAALQRRDHNGDYWGQGTQVTVSS | low polyreactivity |
| QVQLVESGGGLVQAGGSLRLSCAASGFTFKFNAMGWYRQAPGKERELVAAISYSGGSTYYADSVKGRFTISRDIAKNTVYVQMNSLKPEDTAVYYCAARAYWYGASYYYWGQGTQVTVSS | high polyreactivity |
| QVQLVESGGGLVQAGGSLRLSCAASGFTFKFNTMGWYRQAPGKERELVAAISWRGGDTSYADSVKGRFTISRDNAKNTVYLQMNSLKPEDTAVYYCAASPRYPYWYDYWGQGTQVTVSS | low polyreactivity |
| QVQLVESGGGLVQAGGSLRLSCAASGFTFKGNAMGWYRQAPGKERELVAGISRSGRTYYADSVKGRFTISRDNAKNTVYLQMNSLKPEDTAVYYCNARNQGWASLPTMGYWGQGTQVTVSS | high polyreactivity |
| QVQLVESGGGLVQAGGSLRLSCAASGFTFKGNAMGWYRQAPGKERELVATITQSAGSTYYADSVKGRFTISRDNAKNTVYLQMNSLKPEDTAVYYCAAYLSETRPYLYDYWGQGTQVTVSS | low polyreactivity |

| Sequence | polyreactivity (PSR sort gate) |
| --- | --- |
| QVQLVESGGGLVQAGGSLRLSCAASGFTFKKYAMGWSRQAPGKERELVASITWSGGSTSYADSVKGRFTISRDNAKNSVYLQMNSLKPEDTAVFYCAAATFVYRLGYNRFDYWGQGTQVTVSS | high polyreactivity |
| QVQLVESGGGLVQAGGSLRLSCAASGFTFKLNAMGWYRQAPGKERELVAAISWGGGTTYYADSVKGRFTISRDNAKNTVYLQMNSLKPEDTAVYYCAADGTGTYDYWGQGTQVTVSS | low polyreactivity |
| QVQLVESGGGLVQAGGSLRLSCAASGFTFKLYAMGWYRQAPGKERELVAAISSSGGRTYYADSVKGRFTISRDNAKNTVYLQMNSLKPEDTAVYYCNAVRTVNDYHYDYWGQGTQVTVSS | high polyreactivity |
| QVQLVESGGGLVQAGGSLRLSCAASGFTFKLYAMGWYRQSPGKVRELVAAISSSGGRTYYADSVKGRFTISRDNAKYTVYLQMNSLKPEDTAVYYCNAVRTVNDYHYDYWGQGSQVTVSS | high polyreactivity |
| QVQLVESGGGLVQAGGSLRLSCAASGFTFKRNAMGWYRQAPGKERELVASITSRGGSTDYADSVKGRFTISRDNAKNTVYLQMNSLKPEDTAVYYCAAVKYVVYYRSDYWGQGTQVTVSS | high polyreactivity |
| QVQLVESGGGLVQAGGSLRLSCAASGFTFKRYAMGWFRQAPGKERELVSTITSRGGSTYYADSVKGRFTISRDNAKNTVYLQMNSLKPEDTAVYYCVRRYPGLPGWSSYGSYESGYWGQGSQVTVSS | high polyreactivity |
| QVQLVESGGGLVQAGGSLRLSCAASGFTFKYNAMGWYRQAPGKERELVAAISSSGSTNYADSVKGRFTISRDNAKNTVYLQMNSLKPEDTAVYYCAARWRSVLAAGTRPVSFDYWGQGTQVTVSS | low polyreactivity |
| QVQLVESGGGLVQAGGSLRLSCAASGFTFKYNAMGWYRQAPGKERELVAAITASGGSTRYADSVKARFTISRDNAKNTVYLQMNSLKPEDTAVNYCAARKWFPRYSASPRSHGPYDYWGLGTQVTVSS | high polyreactivity |
| QVQLVESGGGLVQAGGSLRLSCAASGFTFKYNAMGWYRQAPGKERELVASISSGSTNYADSVKGRFTISRDNAKNTVYLQMNSLKPEDTAVYYCAASVSRGKRFRYGYVFKLDYWGQGTQVTVSS | low polyreactivity |
| QVQLVESGGGLVQAGGSLRLSCAASGFTFKYYAMGWYRQAPGKERELVAAISSRGGSTYYADSVKGRFTISRDKAKNTVYLQMNSLKPEDTAVYYCAAYYRTGSIWYAIFSDDYWGQGTQVTVSS | high polyreactivity |
| QVQLVESGGGLVQAGGSLRLSCAASGFTFKYYAMGWYRQAPGKERELVAAITKRGGSTYYADSVKGRFTISRDNAKNTVYLQMNSLKPEDTEVYYCAAYYKSTYVPGDYWGQGTQVTVSS | high polyreactivity |
| QVQLVESGGGLVQAGGSLRLSCAASGFTFKYYAMGWYRQAPGKERELVARISWSGGSTYYADSVKGRFTISRDNAKNTFFLQMNSLKPEDTAVYYCNTDFGYGFDYWGQGTQVSVSS | high polyreactivity |
| QVQLVESGGGLVQAGGSLRLSCAASGFTFKYYAMGWYRQAPGKERELVATITSGGRTNYADSVKGRFTISRDNAKNTVYLQMNSLKPEDTAVYYCATPYSAYWQNERDYWGQGTQVTVSS | high polyreactivity |
| QVQLVESGGGLVQAGGSLRLSCAASGFTFKYYDMGWYRQAPGKERELVAAIDTSGGNTYYADSVKGRFTISRDYAKNTVYLQMNSLKPEDTAVYYCAATVPYYHDDYWGQGTQVTVSS | low polyreactivity |
| QVQLVESGGGLVQAGGSLRLSCAASGFTFKYYVMGWYRQAPGKERELVASISKRGGSTRYADSVKGRFTISLDNAKNTVYLQMNSLKPEDTAVYYCAAEYWYYWEYEYWGQGTQVTVSS | high polyreactivity |
| QVQLVESGGGLVQAGGSLRLSCAASGFTFLAYPMGRYRQAPGKERELVAAISKSGGSTYYADSVKGRFTISRDNAKITVYLQMNSLKPDDTAVYYSNAGRRIKFYGSYDYWGQGSQVTVSS | high polyreactivity |
| QVQLVESGGGLVQAGGSLRLSCAASGFTFLDYALGWYIQAPGKERELVASISSSGGSTRYADSVKGRFTISRDNAKNTVYLQMNSLKPEDTAVYYCNAQIAEVPNDYWGQGPQVTVSS | low polyreactivity |
| QVQLVESGGGLVQAGGSLRLSCAASGFTFLIYAMGWYRQAPGKERELVAAITWRGSGTYYADSVKGRFTLSRDNAKNTVYLQMNSLKPEDTAVYYCAARTARRTFDYWGQGTQVTVSS | low polyreactivity |
| QVQLVESGGGLVQAGGSLRLSCAASGFTFLPAYAMGWYRQAPGKERELVAAITRGGSTYYADSVKGRFTISRDNAKNTVYLQMNSLKPEDTAVYYCNADQKFGFYRSVGDDYWGQGTQVTVSS | low polyreactivity |
| QVQLVESGGGLVQAGGSLRLSCAASGFTFLRNAMGWYRQAPGKERELVATISTSGGSTYYADSVKGRFTISRDNAKITVYLQMNSLKPEDTAVYYCAKRYRTRDSGYDYWGQGTQVTVSS | high polyreactivity |
